# Laboratory results from the RNAGym collection of RNA variant scans (doi:10.1021/acssynbio.7b00057).
# B1: Pistol ribozyme (parent)
# chain: GGGUCGUUGUUCCAUAAUCGCGUGGAUAUGGCACGCAAGUUUCUACCGGGCACCGUAAAUGUCCGACUGGAGCCGUUCGGGCGGCUAUAAACAGACCUCAGGCCCGAAGCGUGGCGGCACCUGCCGCCGGUGGUAAAAAAGAUCGGAAGAGCACACGUCU
# Variants of: B1
# Assay: aptazyme ON/OFF ratio, guanine; higher = stronger switching; co-transcriptional cleavage with and without guanine
row,Variant,aptazyme ON/OFF ratio
1,U7A U8G G9U U10G C12A C13U,1.15
2,U7A U8G G9U U10G C12A C13A,1.27
3,U7A U8G G9U U10G C12A C13G,1.14
4,U7A U8G G9U U10C U11G C12U C13A,1.21
5,U7A U8G G9U U10C U11G C12U C13U,1.53
6,U7A U8G G9U U10C U11G C12U C13G,1.31
7,U7A U8G G9U U11C C12G C13U,1.27
8,U7A U8G G9U U11C C12G C13G,1.32
9,U7A U8G G9U U11C C12G C13A,1.16
10,U7A U8G G9U U10G U11C C12A C13G,1.13
11,U7A U8G G9U U10G U11C C12A C13A,1.14
12,U7A U8G G9U U10G U11C C12A C13U,1.16
13,U7A U8G G9U U10G U11G C12G C13U,0.953
14,U7A U8G G9U U10G U11G C12G C13G,1.24
15,U7A U8G G9U U10G U11G C12G C13A,1.16
16,U7A U8G G9U U10C U11C C12G C13U,1.46
17,U7A U8G G9U U10C U11C C12G C13A,1.2
18,U7A U8G G9U U10C U11C C12G C13G,1.11
19,U7A U8G G9U U10C C12U,1.66
20,U7A U8G G9U U10C C12G,1.24
21,U7A U8G G9U U10C C12A,1.41
22,U7A U8G G9U U10C U11G C12G,1.45
23,U7A U8G G9U U10C U11G C12A,1.5
24,U7A U8G G9U U10C U11G C12U,1.21

row,Variant,aptazyme ON/OFF ratio
1,U7A U8G G9U U10C U11C C13U,1.07
2,U7A U8G G9U U10C U11C C13G,1.12
3,U7A U8G G9U U10C U11C C13A,1.04
4,U7A U8G G9U U10G U11A C12G C13U,1.02
5,U7A U8G G9U U10G U11A C12G C13A,1.13
6,U7A U8G G9U U10G U11A C12G C13G,1.38
7,U7A U8G G9U U10G C12G,1.15
8,U7A U8G G9U U10G C12A,1.21
9,U7A U8G G9U U10G C12U,1.28
10,U7A U8G G9U U11A C12G C13U,1.39
11,U7A U8G G9U U11A C12G C13A,1.11
12,U7A U8G G9U U11A C12G C13G,1.26
13,U7A U8G G9U U10C C12U C13G,1.54
14,U7A U8G G9U U10C C12U C13U,1.31
15,U7A U8G G9U U10C C12U C13A,1.34
16,U7A U8G G9U U10C U11A C13G,1.33
17,U7A U8G G9U U10C U11A C13U,1.33
18,U7A U8G G9U U10C U11A C13A,1.44
19,U7A U8G G9U U10A U11G C12U,1.17
20,U7A U8G G9U U10C C12A C13A,1.46
21,U7A U8G G9U U10C C12A C13U,1.35
22,U7A U8G G9U U10C C12A C13G,1.01
23,U7A U8G G9U U10G C12U C13U,1.21
24,U7A U8G G9U U10G C12U C13G,1.24

row,Variant,aptazyme ON/OFF ratio
1,U7A U8G G9U U10G C12U C13A,1.49
2,U7A U8G G9U U11A C13A,1.38
3,U7A U8G G9U U11A C13U,1.44
4,U7A U8G G9U U11A C13G,1.25
5,U7A U8G G9U U10C,2.52
6,U7A U8G G9U U10G,1.47
7,U7A U8G G9U U10C U11A,3.38
8,U7A U8G G9U U10C U11G,1.71
9,U7A U8G G9U U10C U11C,1.15
10,U7A U8G G9U U10C U11A C12G C13U,1.37
11,U7A U8G G9U U10C U11A C12G C13G,1.28
12,U7A U8G G9U U10C U11A C12G C13A,1.27
13,U7A U8G G9U U10G U11A C12A,1.74
14,U7A U8G G9U U10G U11A C12U,1.27
15,U7A U8G G9U U10G U11A C12G,1.46
16,U7A U8G G9U U11C C12A C13U,1.11
17,U7A U8G G9U U11C C12A C13A,1.68
18,U7A U8G G9U U11C C12A C13G,1.12
19,U7A U8G G9U U10G U11C C12G C13G,1.13
20,U7A U8G G9U U10G U11C C12G C13U,1.22
21,U7A U8G G9U U10G U11C C12G C13A,1.11
22,U7A U8G G9U U10A U11G C12U C13U,1.18
23,U7A U8G G9U U10A U11G C12U C13A,1.08
24,U7A U8G G9U U10A U11G C12U C13G,1.16

row,Variant,aptazyme ON/OFF ratio
1,U7A U8G G9U U10C C12G C13A,1.39
2,U7A U8G G9U U10C C12G C13G,1.16
3,U7A U8G G9U U10C C12G C13U,1.68
4,U7A U8G G9U U10G U11C C12U C13U,1.05
5,U7A U8G G9U U10G U11C C12U C13G,1.47
6,U7A U8G G9U U10G U11C C12U C13A,1.1
7,U7A U8G G9U U10G U11A C13A,1.17
8,U7A U8G G9U U10G U11A C13G,1.25
9,U7A U8G G9U U10G U11A C13U,1.14
10,U7A U8G G9U U11C C12U C13G,1.15
11,U7A U8G G9U U11C C12U C13A,1.17
12,U7A U8G G9U U11C C12U C13U,1.07
13,U7A U8G G9U U11A C12U C13G,1.26
14,U7A U8G G9U U11A C12U C13U,1.07
15,U7A U8G G9U U11A C12U C13A,1.43
16,U7A U8G G9U U10C C13A,1.33
17,U7A U8G G9U U10C C13U,1.57
18,U7A U8G G9U U10C C13G,1.21
19,U7A U8G G9U U10G U11A C12U C13A,1.64
20,U7A U8G G9U U10G U11A C12U C13G,1.18
21,U7A U8G G9U U10G U11A C12U C13U,1.42
22,U7A U8G G9U U11A C12U,1.38
23,U7A U8G G9U U11A C12A,1.59
24,U7A U8G G9U U11A C12G,1.38

row,Variant,aptazyme ON/OFF ratio
1,U7A U8G G9U U10G C13A,1.3
2,U7A U8G G9U U10G C13U,1.23
3,U7A U8G G9U U10G C13G,1.32
4,U7A U8G G9U U10A U11G C13U,1.37
5,U7A U8G G9U U10A U11G C13G,1.12
6,U7A U8G G9U U10A U11G C13A,1.14
7,U7A U8G G9U U10G U11G C13U,1.24
8,U7A U8G G9U U10G U11G C13G,1.19
9,U7A U8G G9U U10G U11G C13A,1.16
10,U7A U8G G9U U10C U11A C12U C13A,1.41
11,U7A U8G G9U U10C U11A C12U C13G,1.32
12,U7A U8G G9U U10C U11A C12U C13U,1.36
13,U7A U8G G9U U10G U11C C13U,1.05
14,U7A U8G G9U U10G U11C C13A,1.12
15,U7A U8G G9U U10G U11C C13G,1.07
16,U7A U8G G9U U11A C12A C13G,1.38
17,U7A U8G G9U U11A C12A C13A,1.53
18,U7A U8G G9U U11A C12A C13U,1.25
19,U7A U8G G9U U11C C13G,1.06
20,U7A U8G G9U U11C C13U,1.38
21,U7A U8G G9U U11C C13A,1.26
22,U7A U8G G9U U10C U11G C12G C13U,1.18
23,U7A U8G G9U U10C U11G C12G C13A,1.36
24,U7A U8G G9U U10C U11G C12G C13G,1.26

row,Variant,aptazyme ON/OFF ratio
1,U7A U8G G9U U10G U11A C12A C13U,1.48
2,U7A U8G G9U U10G U11A C12A C13A,1.16
3,U7A U8G G9U U10G U11A C12A C13G,1.39
4,U7A U8G G9U U10G U11G C12G,1.35
5,U7A U8G G9U U10G U11G C12A,1.38
6,U7A U8G G9U U10G U11G C12U,1.36
7,U7A U8G G9U U10G U11C,1.03
8,U7A U8G G9U U10G U11A,1.16
9,U7A U8G G9U U10G U11G,1.38
10,U7A U8G G9U U10C U11A C12U,1.72
11,U7A U8G G9U U10C U11A C12A,1.63
12,U7A U8G G9U U10C U11A C12G,1.61
13,U7A U8G G9U U10C U11G C12A C13A,1.16
14,U7A U8G G9U U10C U11G C12A C13U,1.45
15,U7A U8G G9U U10C U11G C12A C13G,1.41
16,U7A U8G G9U U10C U11C C12G,1.37
17,U7A U8G G9U U10C U11C C12U,1.36
18,U7A U8G G9U U10C U11C C12A,1.3
19,U7A U8G G9U U11C C12G,1.26
20,U7A U8G G9U U11C C12A,1.23
21,U7A U8G G9U U11C C12U,1.54
22,U7A U8G G9U U10G C12G C13G,1.11
23,U7A U8G G9U U10G C12G C13A,1.37
24,U7A U8G G9U U10G C12G C13U,1.3

row,Variant,aptazyme ON/OFF ratio
1,U7A U8G G9U U11C,1.45
2,U7A U8G G9U U11A,2.05
3,U7A U8G G9U U10C U11A C12A C13A,1.26
4,U7A U8G G9U U10C U11A C12A C13G,1.37
5,U7A U8G G9U U10C U11A C12A C13U,1.47
6,U7A U8G G9U U10C U11G C13G,1.38
7,U7A U8G G9U U10C U11G C13A,1.28
8,U7A U8G G9U U10C U11G C13U,1.31
9,U7A U8G G9U U10C U11C C12A C13G,1.32
10,U7A U8G G9U U10C U11C C12A C13A,1.21
11,U7A U8G G9U U10C U11C C12A C13U,1.2
12,U7A U8G G9U U10G U11G C12A C13G,1.13
13,U7A U8G G9U U10G U11G C12A C13A,1.12
14,U7A U8G G9U U10G U11G C12A C13U,1.21
15,U7A U8G G9U U10G U11G C12U C13A,1.38
16,U7A U8G G9U U10G U11G C12U C13U,1.21
17,U7A U8G G9U U10G U11G C12U C13G,1.3
18,U7A U8G G9U U10G U11C C12A,1.19
19,U7A U8G G9U U10G U11C C12U,1.04
20,U7A U8G G9U U10G U11C C12G,1.16
21,U7A U8G G9U U10C U11C C12U C13G,1.2
22,U7A U8G G9U U10C U11C C12U C13U,1.23
23,U7A U8G G9U U10C U11C C12U C13A,1.14
